Assay results published in US20220204643A1 (published 2022).
Read-outs that look alike come from different tables or passages of the source. One block for each binder: values may come before it.

Legend:
[1] = target: T1, kelch like ECH associated protein 1, transcript variant 1 (human, UniProt Q14145 1-624)
T1 construct: HuProt array protein, full-length recombinant from yeast; also called KEAP1
T1 sequence (Q14145 whole entry, change not shown): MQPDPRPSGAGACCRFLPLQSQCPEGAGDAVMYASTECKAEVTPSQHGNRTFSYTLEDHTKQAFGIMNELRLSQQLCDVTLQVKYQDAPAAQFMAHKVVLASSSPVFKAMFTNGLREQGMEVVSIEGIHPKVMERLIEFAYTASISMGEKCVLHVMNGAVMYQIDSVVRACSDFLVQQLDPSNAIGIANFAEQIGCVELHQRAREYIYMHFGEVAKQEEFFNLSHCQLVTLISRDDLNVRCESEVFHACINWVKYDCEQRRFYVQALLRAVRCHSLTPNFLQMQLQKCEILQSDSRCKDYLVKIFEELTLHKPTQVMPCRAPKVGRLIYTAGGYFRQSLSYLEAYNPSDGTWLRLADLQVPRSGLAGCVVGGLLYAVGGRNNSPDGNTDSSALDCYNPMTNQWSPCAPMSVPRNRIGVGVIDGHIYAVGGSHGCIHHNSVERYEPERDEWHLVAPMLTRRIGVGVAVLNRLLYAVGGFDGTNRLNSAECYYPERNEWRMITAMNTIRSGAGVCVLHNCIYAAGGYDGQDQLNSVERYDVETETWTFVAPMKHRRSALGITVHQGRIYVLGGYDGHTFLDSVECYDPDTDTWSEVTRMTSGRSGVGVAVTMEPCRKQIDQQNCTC

[2] = target: T2, kelch like ECH associated protein 1, transcript variant 1 (human, UniProt Q14145 1-624); test: protein array
T2 construct: on protein array; also called KEAP1
T2 sequence (Q14145 whole entry, change not shown): as above

DEAD-box helicase 53 [3] = target: T3, DEAD-box helicase 53 (human, UniProt Q86TM3 1-631); test: protein array
T3 construct: on protein array; also called DDX53
T3 sequence (Q86TM3 other isoform, or with tags, fused parts or gaps limits assumed): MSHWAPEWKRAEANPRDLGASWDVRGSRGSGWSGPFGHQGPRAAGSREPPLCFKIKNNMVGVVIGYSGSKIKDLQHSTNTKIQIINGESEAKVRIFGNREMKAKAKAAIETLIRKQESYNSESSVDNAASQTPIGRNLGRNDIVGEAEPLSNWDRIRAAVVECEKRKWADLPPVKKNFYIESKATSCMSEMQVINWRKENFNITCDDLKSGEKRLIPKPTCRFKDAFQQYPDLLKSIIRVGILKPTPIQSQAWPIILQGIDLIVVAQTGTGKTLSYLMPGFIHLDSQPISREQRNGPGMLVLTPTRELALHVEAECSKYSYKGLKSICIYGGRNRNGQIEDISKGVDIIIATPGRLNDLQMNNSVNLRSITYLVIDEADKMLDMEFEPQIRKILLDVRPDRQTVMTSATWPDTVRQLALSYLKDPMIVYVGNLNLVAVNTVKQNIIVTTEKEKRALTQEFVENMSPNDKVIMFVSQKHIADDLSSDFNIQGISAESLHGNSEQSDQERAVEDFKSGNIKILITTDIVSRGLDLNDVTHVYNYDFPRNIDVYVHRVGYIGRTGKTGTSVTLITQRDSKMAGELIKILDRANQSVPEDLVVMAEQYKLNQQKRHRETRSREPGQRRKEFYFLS

DEAD-box helicase 53 [4] = target: T4, DEAD-box helicase 53 (human, UniProt Q86TM3 1-631)
T4 construct: also called DDX53
T4 sequence (Q86TM3 other isoform, or with tags, fused parts or gaps limits assumed): as above

[5] = target: T5, Jupiter microtubule associated homolog 2 (human, UniProt Q9H910 1-190); test: protein array
T5 construct: on protein array; also called HN1L
T5 sequence: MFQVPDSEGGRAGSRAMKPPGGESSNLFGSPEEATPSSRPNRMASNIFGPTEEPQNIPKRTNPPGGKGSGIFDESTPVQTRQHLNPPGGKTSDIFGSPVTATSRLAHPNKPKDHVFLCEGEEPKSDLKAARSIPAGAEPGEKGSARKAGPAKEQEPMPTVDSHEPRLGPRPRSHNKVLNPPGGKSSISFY

[6] = target: T6, endosome associated trafficking regulator 1, transcript variant 2 (human, UniProt Q96C92 59-435); test: protein array
T6 construct: on protein array; also called SDCCAG3
T6 chain: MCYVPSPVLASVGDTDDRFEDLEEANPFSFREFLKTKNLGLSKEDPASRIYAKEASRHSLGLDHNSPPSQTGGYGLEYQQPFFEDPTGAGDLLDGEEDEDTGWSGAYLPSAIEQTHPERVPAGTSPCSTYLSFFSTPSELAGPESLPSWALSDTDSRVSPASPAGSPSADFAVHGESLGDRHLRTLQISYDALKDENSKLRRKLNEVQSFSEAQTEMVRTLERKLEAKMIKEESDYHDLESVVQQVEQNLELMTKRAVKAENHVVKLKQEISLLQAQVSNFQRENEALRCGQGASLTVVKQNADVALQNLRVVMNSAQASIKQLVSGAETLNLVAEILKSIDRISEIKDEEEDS

[7] = target: T7, endosome associated trafficking regulator 1, transcript variant 2 (human, UniProt Q96C92 59-435)
T7 construct: HuProt array protein, full-length recombinant from yeast; also called SDCCAG3
T7 chain: T6 chain

[8] = target: T8, PNMA family member 5, transcript variant 2 (human, UniProt Q96PV4 1-448)
T8 construct: HuProt array protein, full-length recombinant from yeast; also called PNMA5
T8 sequence (Q96PV4 other isoform, or with tags, fused parts or gaps mutant limits assumed): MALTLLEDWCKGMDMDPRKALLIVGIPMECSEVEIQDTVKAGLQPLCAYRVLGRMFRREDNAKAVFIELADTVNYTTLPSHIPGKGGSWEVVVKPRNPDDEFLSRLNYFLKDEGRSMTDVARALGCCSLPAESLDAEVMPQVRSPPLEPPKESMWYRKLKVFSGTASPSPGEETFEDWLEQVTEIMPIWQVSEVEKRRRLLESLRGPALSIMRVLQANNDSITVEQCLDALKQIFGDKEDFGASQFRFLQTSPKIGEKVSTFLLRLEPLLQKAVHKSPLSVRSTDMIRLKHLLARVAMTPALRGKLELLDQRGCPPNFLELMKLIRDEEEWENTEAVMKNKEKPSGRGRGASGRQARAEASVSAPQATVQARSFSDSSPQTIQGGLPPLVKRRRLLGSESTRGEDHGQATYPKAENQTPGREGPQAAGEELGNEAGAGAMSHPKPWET

[9] = target: T9, PNMA family member 5, transcript variant 2 (human, UniProt Q96PV4 1-448); test: protein array
T9 construct: on protein array; also called PNMA5
T9 sequence (Q96PV4 other isoform, or with tags, fused parts or gaps mutant limits assumed): as above

binding result [8]: binds
B13: TBRE1011 (antibody, V domains shown)
VH: PVLLQESGPGLVKPSETLSLTCTVSGDSMSFYYWTWIRQPPGKGLEWIGYIYYSGNRNYNPSLNSRVTISVDTSKNEVSLKLTSVTAADTAAYYCARGRGEMDVWGQGTTVTVSS
VL: QSVLTQPPSASGTPGQGVTISCSGTSANIGKNYVSWYQHLPGTAPRLLIYRIDQRPSGVPDRFSGSKSGTSASLAISGLRPEDEADYYCAAWDDSLSGPVFGGGTKLTVLG
notes: detected with anti-human IgG Fc

binding result [5]: binds
B14: TTES1011 (antibody, V domains shown)
VH: PVTLRESGPALVKPTQTLTLTCTFSGFSLSTSGMCVSWIRQPPGKALEWLARIDWDDDKYYSTSLKTRLTISKDTSKNQVVLTMTNMDPVDTATYYCARMQIVATTQTYYYYYGMDVWGQGTTVTVSS
VL: PAVLTQPPSVSGAPGQRVTISCTGSSSNIGAGYDVHWYQQLPGTAPKLLIYGNSNRPSGVPDRFSGSKSGTSASLAITGLQAEDEADYYCQSYDSSLSGSGVFGGGTKLTVLG
notes: VH/VL tied via antigen in summary, not by name in this stretch

binding result (DEAD-box helicase 53 [3]): binds
B15: TOVA1001 (antibody, V domains shown)
VH: HVQLVQSGSELKKPGASVKLSCKASGYTFTNYAMNWVRQAPGQGLEWMGWINTNTGNPTYAQGFTGRFVFSLDTSVSTAYLQISSLKAEDTALYYCARDRPGDYWGQGTLVTVSS
VL: not shown
notes: as for B14

binding result (DEAD-box helicase 53 [4]): binds
B16: TOVA1001 (antibody, V domains shown)
VH: B15 VH
VL: not shown

binding result [6]: binds
B17: TMEL1025 (antibody, V domains shown)
VH: EVQLMESGGGLVQPGGSLRLSCAASGLTFSIYSMNWVRQAPGKGLEWVSYISRGSSVIYHADSVKGRFTISRDDGKNLLYLQMNSLRDDDTAMYYCSSGGSTSMVGRYWGQGSLVTVSS
VL: DVVMTQSPLYLPVTLGQPASISCRASQSLVYSDGNTYLNWVHQRPGQSPRRLIYMVSQRGSGVPDRFSGSGSDTDFTLKISRVEAEDVGVYYCMQGTHWSAFGQGTKLEIKR
notes: as for B14

binding result [7]: binds
B18: TMEL1025 (antibody, V domains shown)
VH: B17 VH
VL: B17 VL
notes: as for B13

Further lines, the binder ahead of its results:

B1: TBRE1052 (antibody, V domains shown)
VH: PVQLIQSGAEVRKPGASVKVSCKVSGYTLSELSLHWVRQAPGKGLEWMGTFDPEDGETVYAQKFQGRVTVTEDTSTDTAYIDLSSLKSEDTAVYYCATDGPLHTSGLDYWGQGTLVTVSS
VL: EIVLTQSPATLSLSPGERATLSCRASQSISSNLAWYQQKPGQAPRLLIYDASNRATGIPARFSGSGSGTDFTLTISSLEPEDFAVYYCQQHSNWPELTFGGGTKVEIKR
notes: as for B13
binding result [1]: binds

B2: TBRE1052 (antibody, V domains shown)
VH: B1 VH
VL: B1 VL
notes: VH/VL only
binding result [2]: binds

B3: TSAR1004 (antibody, V domains shown)
VH: QVQLQESGPGLVKPSETLSLTCSVSGDSFSDYYWSWTRQSPGKGLEWLGYMFYGGSTNYNPSLKSRLTMSVDTSKKHVYLKLSSVTAADTAVYYCAASGYGDHVAYWGQGTLVTVSS
VL: DIVMTQSPDSLAVSLGERATLNCKSSQSVLSSYNNKDYLAWFQQKPGQPPQLLFYWASTRKTGVPDRFSGSGSGTDFTLTISSLQTEDVAVYYCQQYYSTPYTFGQGTKLEIK
notes: as for B14
binding result (DEAD-box helicase 53 [3]): binds

B4: TSAR1004 (antibody, V domains shown)
VH: B3 VH
VL: B3 VL
binding result (DEAD-box helicase 53 [4]): binds

B5: TOVA1008 (antibody, V domains shown)
VH: ELQLVESGGGLVQPGGSLRLSCAASGFTFSSYWMSWVRQAPGKGLEWVANINQDGGEKYYVDSVKGRFTISRDNAKNSLYLQMNSLRAEDTAVYYCAHYYYDSSGYYQNAEYFQYWGQGTLVTVSS
VL: DIQMTQSPPSLSASVGDRVTITCQASQDISNYLNWYQQKPGKTPKLLIYAASTLETGVPSRFSGSGSGTDFTFTINSLQPEDIATYYCQQYDSLPLTFGGGTKVEIKR
notes: as for B14
binding result [5]: binds

B6: TCOL1007 (antibody, V domains shown)
VH: PVQLVESGGGVVQPGRSLRLSCAASGFTFSNYGMHWVRQAPGKGLEWVAVISDDGNDKDNADSVKGRFTISRDNSKNTLYLRMNSLRREDTAVYYCARDGFDYWGQGTLVTVSS
VL: DIVMTQTPLSMPVTPGEPASISCRSSQSLLDSDDGKTYLDWYLQKPGQSPQLLIYTVSYRASGVPDRFSGSGSGTDFTLKISRVEAEDVGVYYCMQRIEFPFTFGPGTKVDIKR
notes: as for B13
binding result [1]: binds

B7: TMES1001 (antibody, V domains shown)
VH: QVQLVQSGAEVKKPGASVKVSCKASGYTFTSYYMYWVRQAPGQGLEWMGIINPGGGSTSYAQKFQGRVTMTRDTSTSTVYMELSSLRSEDTAVYYCARVFRYGMDVWGQGTTVTVSS
VL: EIVMTQSPATLSVSPGERATLSCRASQSVSSNLAWYQQKPGQAPRLLIYGASTRATGLPARFSGSGSGTEFTLTISSLQSEDFAVYYCQSRGTFGGGTKVEIK
notes: as for B14
binding result [6]: binds

B8: TMES1001 (antibody, V domains shown)
VH: B7 VH
VL: B7 VL
notes: as for B13
binding result [7]: binds

B9: THNS1009 (antibody, V domains shown)
VH: QVQLQESGPGLVKPSETLSLTCTVSGGSISIYYWSWIRQPPGKGLEWIGYIYYSGSTNYNPSLKSRVTISVDTSKNQFSLKLRSVTAADTAVYYCARDTYGDPRGDYFDYWGQGTLVTVSS
VL: DIQMTQSPSTLSASVGDRVTITCRASQRISNWLAWYQQTPGKAPKLLIYKASSLESGVPSRFSGSGSGTEFTLTISSLQPDDFATYYCQQYSSSSPRTFGQGTKVEIKR
notes: as for B13
binding result [8]: binds

B10: THNS1009 (antibody, V domains shown)
VH: B9 VH
VL: B9 VL
notes: VH/VL only
binding result [9]: binds

B11: THNS1008 (antibody, V domains shown)
VH: QVQLQESGPGLVKPSQTLSLTCAVSGGSISSGGYPWSWIRQPPGKGLEWIGYISYSGSTDYNPSLKSRVTISLDTSSNQFSLNLSSLTAADTAVYYCARGAAFYYGMDVWGQGTTVTVSS
VL: DIQMTQSPSSLSASVGDRVTITCRASQSISTYLNWYQQKPGKAPKLLIYVASSLQSGVPSRFSGSGSGTDFTLTISGLQPEDFATYYCQQSYSTPYTFGQGTKLEIKR
notes: detected with anti-human IgG Fc; also called THINS1008
binding result [1]: binds

B12: TBRE1011 (antibody, V domains shown)
VH: B13 VH
VL: B13 VL
notes: VH/VL only
binding result [9]: binds
